Laboratory results as given in patent publication US20100092465A1, “TREATMENT OF GRAFT-VERSUS-HOST DISEASE” (priority 2006, published 2010).

Legend:
BHK-mIL-27R cells = molecular target: T1, BHK-mIL-27R cells (Mus musculus, UniProt O70394); assay: Competition binding against 125I-labeled A1426F; settings: 0.1 nM label; competitor 50 nM to 7.6 pM; 4 hours on ice
T1 construct: expressed in transfected cells; host or cells: BHK cells
T1 sequence (O70394 25-623): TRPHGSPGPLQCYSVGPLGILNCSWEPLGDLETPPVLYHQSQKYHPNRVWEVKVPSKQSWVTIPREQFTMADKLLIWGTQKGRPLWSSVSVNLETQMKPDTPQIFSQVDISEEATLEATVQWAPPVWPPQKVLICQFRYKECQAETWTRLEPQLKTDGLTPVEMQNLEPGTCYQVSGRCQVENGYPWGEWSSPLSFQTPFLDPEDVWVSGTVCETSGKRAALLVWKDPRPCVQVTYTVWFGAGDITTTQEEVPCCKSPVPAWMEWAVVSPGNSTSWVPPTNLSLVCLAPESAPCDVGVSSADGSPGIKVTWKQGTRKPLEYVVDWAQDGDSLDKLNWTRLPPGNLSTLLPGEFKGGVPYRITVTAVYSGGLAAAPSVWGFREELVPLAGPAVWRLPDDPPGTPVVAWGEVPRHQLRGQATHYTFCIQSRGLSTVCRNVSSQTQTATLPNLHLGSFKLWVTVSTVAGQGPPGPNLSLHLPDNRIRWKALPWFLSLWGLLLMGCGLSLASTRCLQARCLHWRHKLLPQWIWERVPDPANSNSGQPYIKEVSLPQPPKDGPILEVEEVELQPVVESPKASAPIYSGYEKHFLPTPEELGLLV
T1 sequence (Q00560 23-917 partner): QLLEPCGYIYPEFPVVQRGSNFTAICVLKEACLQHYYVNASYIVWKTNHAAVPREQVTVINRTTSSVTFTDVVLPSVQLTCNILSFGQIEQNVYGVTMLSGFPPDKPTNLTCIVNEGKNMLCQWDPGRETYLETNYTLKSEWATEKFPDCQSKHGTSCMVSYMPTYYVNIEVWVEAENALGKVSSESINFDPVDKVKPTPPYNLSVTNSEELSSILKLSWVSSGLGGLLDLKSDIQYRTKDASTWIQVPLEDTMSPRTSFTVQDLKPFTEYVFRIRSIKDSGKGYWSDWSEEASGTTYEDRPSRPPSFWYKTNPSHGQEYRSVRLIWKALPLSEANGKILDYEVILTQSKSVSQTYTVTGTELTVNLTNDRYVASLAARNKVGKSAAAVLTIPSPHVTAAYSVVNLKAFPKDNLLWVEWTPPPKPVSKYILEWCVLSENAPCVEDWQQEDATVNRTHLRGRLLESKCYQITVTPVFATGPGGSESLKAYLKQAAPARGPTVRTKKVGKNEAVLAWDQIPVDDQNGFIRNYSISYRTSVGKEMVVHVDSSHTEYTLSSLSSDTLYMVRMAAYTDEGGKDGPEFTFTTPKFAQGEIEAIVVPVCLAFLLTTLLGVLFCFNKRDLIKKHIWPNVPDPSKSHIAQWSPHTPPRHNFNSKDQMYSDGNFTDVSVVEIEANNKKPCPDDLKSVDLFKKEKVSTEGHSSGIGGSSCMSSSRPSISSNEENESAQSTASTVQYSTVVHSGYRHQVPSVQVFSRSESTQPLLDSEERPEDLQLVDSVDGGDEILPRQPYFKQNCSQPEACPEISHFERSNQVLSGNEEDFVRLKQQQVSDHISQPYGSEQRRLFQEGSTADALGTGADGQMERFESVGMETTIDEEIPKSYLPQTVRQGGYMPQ
Experimental: For competition binding studies, ^125I-labeled A1426F (0.1 nM) was added to preparations of unlabeled A1426F, mouse IL-27 p28 with a C-terminal polyhistidine tag (A1406F), or an unrelated control protein titered from 50 nM to 7.6 pM in 1:3 serial dilutions. These preparations were incubated with BHK-mIL-27R cells for 4 hours on ice. The cells were then washed three times with ice-cold binding buffer, then solublized with 1N NaOH. These lysates were then checked for bound A1426F by checking for radiation with a gamma counter.

huIL-27 [1] = molecular target: T2, huIL-27 (Homo sapiens, UniProt Q14213+Q8NEV9); assay: Phospho-STAT3 neutralization assay, total human PBMCs, huIL-27; type: cell-based; settings: total human PBMCs; phospho-STAT3; read-out: EC90 concentration
T2 sequence (Q14213 21-229): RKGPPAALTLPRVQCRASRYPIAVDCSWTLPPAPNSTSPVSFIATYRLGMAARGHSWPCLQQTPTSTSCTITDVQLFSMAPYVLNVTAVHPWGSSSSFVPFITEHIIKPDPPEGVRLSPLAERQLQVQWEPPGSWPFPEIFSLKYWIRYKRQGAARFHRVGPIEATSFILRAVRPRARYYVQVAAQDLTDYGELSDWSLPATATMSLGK
T2 sequence (Q8NEV9 29-243): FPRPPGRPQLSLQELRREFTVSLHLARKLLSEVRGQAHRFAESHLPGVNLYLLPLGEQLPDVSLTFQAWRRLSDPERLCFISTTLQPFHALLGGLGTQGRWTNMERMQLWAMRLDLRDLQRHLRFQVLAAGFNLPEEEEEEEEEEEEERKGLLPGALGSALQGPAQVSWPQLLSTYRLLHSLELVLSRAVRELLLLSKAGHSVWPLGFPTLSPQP
Excerpt: (§1) Whole mouse spleens were harvested from C57 B1/6 mice and washed two times with 1×PBS before being plated out at 2×10^5 cells/well in assay media (RPMI 1640 plus 10% fetal bovine serum) in 96-well, round-bottom tissue culture plates. Total human PBMC (peripheral blood mononuclear cells) were thawed from a frozen vial collected from a leukapherisis donation and washed two times with 1×PBS before being plated out at 10^6 cells/well in assay media in 96-well, round-bottom tissue culture plates. […] Following pre-incubation, treatments were added to the plates containing the cells and incubated together at 37° C. for 15 minutes.
(§2) Following incubation, cells were washed with ice-cold wash buffer (BIO-PLEX Cell Lysis Kit, BIO-RAD Laboratories, Hercules, Calif.) and put on ice to stop the reaction according to manufacturer's instructions. […]
(§3) Capture beads (BIO-PLEX Phospho-Stat3 Assay, BIO-RAD Laboratories) were combined with 50 μL of 1:1 diluted lysates and added to a 96-well filter plate according to manufacture's instructions (BIO-PLEX Phosphoprotein Detection Kit, BIO-RAD Laboratories). […] After the final wash, beads were resuspended in 125 μL/well of bead suspension buffer, shaken for 30 seconds, and read on an array reader (BIO-PLEX, BIO-RAD Laboratories) according to the manufacture's instructions. Data were analyzed using analytical softward (BIO-PLEX MANAGER 3.0, BIO-RAD Laboratories). […]

huIL-27 [2] = molecular target: T2, huIL-27; assay: Phospho-STAT3 neutralization assay, mouse spleens, huIL-27; type: cell-based; settings: mouse spleens; phospho-STAT3; read-out: EC90 concentration
Excerpt: as §1, §2, §3

| competition with ^125I-labeled A1426F for binding (BHK-mIL-27R cells) | EC90 (huIL-27 [1]) | EC90 (huIL-27 [2]) | Substance |
| --- | --- | --- | --- |
| unable to compete | – | – | A1406F: mouse IL-27 p28 with a C-terminal polyhistidine tag |
| – | 2 nM | 2 nM | huIL-27: human IL-27 ligand [reference compound] |
